Results: patent publication US20140112915A1 (Novartis, published 2014)

T1: Recombinant human IL-18 (human, UniProt Q14116 37-193)
T1 sequence: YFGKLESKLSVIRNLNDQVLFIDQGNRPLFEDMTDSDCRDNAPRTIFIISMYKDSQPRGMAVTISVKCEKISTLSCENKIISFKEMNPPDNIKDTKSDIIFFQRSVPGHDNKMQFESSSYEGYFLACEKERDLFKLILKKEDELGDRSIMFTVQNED

T2: Native human IL-18 (human, UniProt Q14116 37-193)
T2 sequence: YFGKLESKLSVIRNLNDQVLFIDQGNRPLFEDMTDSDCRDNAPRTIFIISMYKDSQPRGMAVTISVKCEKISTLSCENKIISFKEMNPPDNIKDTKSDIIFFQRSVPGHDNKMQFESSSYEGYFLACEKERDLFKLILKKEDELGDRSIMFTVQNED


Assays:
Test in all cases: cell-based or functional assay
[1] = molecular target: T1, Recombinant human IL-18
[2] = molecular target: T2, Native human IL-18
[3] = molecular target: T1, Recombinant human IL-18; remark: listed apart in the source
[4] = molecular target: T2, Native human IL-18; remark: listed apart in the source

Binder | IC50, inhibition of IFN-γ release, KG-1 cells, Hu IL-18 (1 nM) [1] | IC50, inhibition of IFN-γ release, PBMC, Native IL-18 (LPS/IL-12) [2] | IC50, inhibition of IFN-γ release, human whole blood, recombinant human IL-18 (7 nM) [3] | IC50, inhibition of IFN-γ release, human whole blood, LPS/IL-12 (native IL-18) [4]
MOR9464_N30G (antibody, human IgG1, lambda, L234A L235A, V domains shown) VH: EVQLVQSGAEVKKPGSSVKVSCKASGGTFGSYAISWVRQAPGQGLEWMGNIIPMTGQTYYAQKFQGRVTITADESTSTAYMELSSLRSEDTAVYYCARAAYHPLVFDNWGQGTLVTVSS VL: DIVLTQPPSVSGAPGQRVTISCSGSSSNIGNHYVNWYQQLPGTAPKLLIYRNNHRPSGVPDRFSGSKSGTSASLAITGLQSEDEADYYCQSWDYSGFSTVFGGGTKLTVLG | 0.54 nM | 0.11 nM | 25.1 nM | 15.1 nM
MOR9464_N30E (antibody, human IgG1, lambda, L234A L235A, V domains shown) VH: EVQLVQSGAEVKKPGSSVKVSCKASGGTFESYAISWVRQAPGQGLEWMGNIIPMTGQTYYAQKFQGRVTITADESTSTAYMELSSLRSEDTAVYYCARAAYHPLVFDNWGQGTLVTVSS VL: DIVLTQPPSVSGAPGQRVTISCSGSSSNIGNHYVNWYQQLPGTAPKLLIYRNNHRPSGVPDRFSGSKSGTSASLAITGLQSEDEADYYCQSWDYSGFSTVFGGGTKLTVLG | 0.49 nM | 0.13 nM | 12.9 nM | 19.2 nM
MOR9464_N30Q (antibody, human IgG1, lambda, L234A L235A, V domains shown) VH: EVQLVQSGAEVKKPGSSVKVSCKASGGTFQSYAISWVRQAPGQGLEWMGNIIPMTGQTYYAQKFQGRVTITADESTSTAYMELSSLRSEDTAVYYCARAAYHPLVFDNWGQGTLVTVSS VL: DIVLTQPPSVSGAPGQRVTISCSGSSSNIGNHYVNWYQQLPGTAPKLLIYRNNHRPSGVPDRFSGSKSGTSASLAITGLQSEDEADYYCQSWDYSGFSTVFGGGTKLTVLG | 0.22 nM | 0.07 nM | 8.1 nM | 13.4 nM
MOR9464_N30H (antibody, human IgG1, lambda, L234A L235A, V domains shown) VH: EVQLVQSGAEVKKPGSSVKVSCKASGGTFHSYAISWVRQAPGQGLEWMGNIIPMTGQTYYAQKFQGRVTITADESTSTAYMELSSLRSEDTAVYYCARAAYHPLVFDNWGQGTLVTVSS VL: DIVLTQPPSVSGAPGQRVTISCSGSSSNIGNHYVNWYQQLPGTAPKLLIYRNNHRPSGVPDRFSGSKSGTSASLAITGLQSEDEADYYCQSWDYSGFSTVFGGGTKLTVLG | 0.23 nM | 0.1 nM | 11.9 nM | 23 nM
MOR9464_N30I (antibody, human IgG1, lambda, L234A L235A, V domains shown) VH: EVQLVQSGAEVKKPGSSVKVSCKASGGTFISYAISWVRQAPGQGLEWMGNIIPMTGQTYYAQKFQGRVTITADESTSTAYMELSSLRSEDTAVYYCARAAYHPLVFDNWGQGTLVTVSS VL: DIVLTQPPSVSGAPGQRVTISCSGSSSNIGNHYVNWYQQLPGTAPKLLIYRNNHRPSGVPDRFSGSKSGTSASLAITGLQSEDEADYYCQSWDYSGFSTVFGGGTKLTVLG | 0.32 nM | 0.11 nM | 11.4 nM | 13.2 nM

Continued, values first:

IC50, inhibition of IFN-γ release, KG-1 cells, Hu IL-18 (1 nM) [1] | IC50, inhibition of IFN-γ release, PBMC, Native IL-18 (LPS/IL-12) [2] | IC50, inhibition of IFN-γ release, human whole blood, recombinant human IL-18 (7 nM) [3] | IC50, inhibition of IFN-γ release, human whole blood, LPS/IL-12 (native IL-18) [4] | Binder
4.8 nM | 0.09 nM | 34.3 nM | 18.8 nM | MOR10222_E1Q_N30S_M54Y (antibody, human IgG1, lambda, L234A L235A, V domains shown) VH: QVQLVQSGAEVKKPGSSVKVSCKASGGTFSSYAISWVRQAPGQGLEWMGNIIPYTGQTYYAQKFQGRVTITADESTSTAYMELSSLRSEDTAVYYCARAAYHPLVFDNWGQGTLVTVSS VL: QSVLTQPPSASGTPGQRVTISCSGSSSNIGNHYVNWYQQLPGTAPKLLIYRNNHRPSGVPDRFSGSKSGTSASLAISGLQSEDEADYYCQSWDYSGFSTVFGGGTKLTVLG
0.31 nM | 0.19 nM | 12.5 nM | 20.8 nM | MOR9464_N30T (antibody, human IgG1, lambda, L234A L235A, V domains shown) VH: EVQLVQSGAEVKKPGSSVKVSCKASGGTFTSYAISWVRQAPGQGLEWMGNIIPMTGQTYYAQKFQGRVTITADESTSTAYMELSSLRSEDTAVYYCARAAYHPLVFDNWGQGTLVTVSS VL: DIVLTQPPSVSGAPGQRVTISCSGSSSNIGNHYVNWYQQLPGTAPKLLIYRNNHRPSGVPDRFSGSKSGTSASLAITGLQSEDEADYYCQSWDYSGFSTVFGGGTKLTVLG
0.23 nM | 0.03 nM | 12.4 nM | 17.9 nM | MOR9464_N30Y (antibody, human IgG1, lambda, L234A L235A, V domains shown) VH: EVQLVQSGAEVKKPGSSVKVSCKASGGTFYSYAISWVRQAPGQGLEWMGNIIPMTGQTYYAQKFQGRVTITADESTSTAYMELSSLRSEDTAVYYCARAAYHPLVFDNWGQGTLVTVSS VL: DIVLTQPPSVSGAPGQRVTISCSGSSSNIGNHYVNWYQQLPGTAPKLLIYRNNHRPSGVPDRFSGSKSGTSASLAITGLQSEDEADYYCQSWDYSGFSTVFGGGTKLTVLG
5.2 nM | 0.03 nM | 46.5 nM | 16.1 nM | MOR10222_E1Q_N30S_M54N (antibody, human IgG1, lambda, L234A L235A, V domains shown) VH: QVQLVQSGAEVKKPGSSVKVSCKASGGTFSSYAISWVRQAPGQGLEWMGNIIPNTGQTYYAQKFQGRVTITADESTSTAYMELSSLRSEDTAVYYCARAAYHPLVFDNWGQGTLVTVSS VL: QSVLTQPPSASGTPGQRVTISCSGSSSNIGNHYVNWYQQLPGTAPKLLIYRNNHRPSGVPDRFSGSKSGTSASLAISGLQSEDEADYYCQSWDYSGFSTVFGGGTKLTVLG
0.29 nM | 0.11 nM | 12.7 nM | 19.6 nM | MOR9464_N30V (antibody, human IgG1, lambda, L234A L235A, V domains shown) VH: EVQLVQSGAEVKKPGSSVKVSCKASGGTFVSYAISWVRQAPGQGLEWMGNIIPMTGQTYYAQKFQGRVTITADESTSTAYMELSSLRSEDTAVYYCARAAYHPLVFDNWGQGTLVTVSS VL: DIVLTQPPSVSGAPGQRVTISCSGSSSNIGNHYVNWYQQLPGTAPKLLIYRNNHRPSGVPDRFSGSKSGTSASLAITGLQSEDEADYYCQSWDYSGFSTVFGGGTKLTVLG
0.47 nM | 0.04 nM | 10.1 nM | 11 nM | MOR9464_N30R (antibody, human IgG1, lambda, L234A L235A, V domains shown) VH: EVQLVQSGAEVKKPGSSVKVSCKASGGTFRSYAISWVRQAPGQGLEWMGNIIPMTGQTYYAQKFQGRVTITADESTSTAYMELSSLRSEDTAVYYCARAAYHPLVFDNWGQGTLVTVSS VL: DIVLTQPPSVSGAPGQRVTISCSGSSSNIGNHYVNWYQQLPGTAPKLLIYRNNHRPSGVPDRFSGSKSGTSASLAITGLQSEDEADYYCQSWDYSGFSTVFGGGTKLTVLG
